From article PMC9979977

Biological target: Borna disease virus 1 (BoDV-1) phosphoprotein (Borna disease virus 1)
Experiment: SEC-MALS; SEC-MALLS, Superdex 200 10/300, 20°C, 20 mM HEPES pH 7.5, 150 mM NaCl, 5%(v/v) glycerol; protein applied at 1-4 mg/ml; no concentration dependence of the oligomerization

Question: How did the stoichiometry N turn out when “Borna disease virus 1 (BoDV-1) phosphoprotein (natural protein)” was run?
Answer: Its stoichiometry N is 4.
